# Test results reported in patent US6753315.
# Target: Torpedo nicotinic acetylcholine receptor (nAChR-enriched membranes) (Torpedo (species not stated)) (UniProt P02710)
substance,measurement,value
"Pichia-expressed, purified recombinant α-bungarotoxin (rBgtx) (from UniProt P60615 22-95) (ligand)",reduction in 125I-Bgtx bound,45%
